Article PMC5121064

Biological target: Sec14/PH module of NF1, NanoBRET construct
Assay: FRET or BRET

Sec14/PH module of NF1, NanoBRET construct, sequence (P21359 2-2839): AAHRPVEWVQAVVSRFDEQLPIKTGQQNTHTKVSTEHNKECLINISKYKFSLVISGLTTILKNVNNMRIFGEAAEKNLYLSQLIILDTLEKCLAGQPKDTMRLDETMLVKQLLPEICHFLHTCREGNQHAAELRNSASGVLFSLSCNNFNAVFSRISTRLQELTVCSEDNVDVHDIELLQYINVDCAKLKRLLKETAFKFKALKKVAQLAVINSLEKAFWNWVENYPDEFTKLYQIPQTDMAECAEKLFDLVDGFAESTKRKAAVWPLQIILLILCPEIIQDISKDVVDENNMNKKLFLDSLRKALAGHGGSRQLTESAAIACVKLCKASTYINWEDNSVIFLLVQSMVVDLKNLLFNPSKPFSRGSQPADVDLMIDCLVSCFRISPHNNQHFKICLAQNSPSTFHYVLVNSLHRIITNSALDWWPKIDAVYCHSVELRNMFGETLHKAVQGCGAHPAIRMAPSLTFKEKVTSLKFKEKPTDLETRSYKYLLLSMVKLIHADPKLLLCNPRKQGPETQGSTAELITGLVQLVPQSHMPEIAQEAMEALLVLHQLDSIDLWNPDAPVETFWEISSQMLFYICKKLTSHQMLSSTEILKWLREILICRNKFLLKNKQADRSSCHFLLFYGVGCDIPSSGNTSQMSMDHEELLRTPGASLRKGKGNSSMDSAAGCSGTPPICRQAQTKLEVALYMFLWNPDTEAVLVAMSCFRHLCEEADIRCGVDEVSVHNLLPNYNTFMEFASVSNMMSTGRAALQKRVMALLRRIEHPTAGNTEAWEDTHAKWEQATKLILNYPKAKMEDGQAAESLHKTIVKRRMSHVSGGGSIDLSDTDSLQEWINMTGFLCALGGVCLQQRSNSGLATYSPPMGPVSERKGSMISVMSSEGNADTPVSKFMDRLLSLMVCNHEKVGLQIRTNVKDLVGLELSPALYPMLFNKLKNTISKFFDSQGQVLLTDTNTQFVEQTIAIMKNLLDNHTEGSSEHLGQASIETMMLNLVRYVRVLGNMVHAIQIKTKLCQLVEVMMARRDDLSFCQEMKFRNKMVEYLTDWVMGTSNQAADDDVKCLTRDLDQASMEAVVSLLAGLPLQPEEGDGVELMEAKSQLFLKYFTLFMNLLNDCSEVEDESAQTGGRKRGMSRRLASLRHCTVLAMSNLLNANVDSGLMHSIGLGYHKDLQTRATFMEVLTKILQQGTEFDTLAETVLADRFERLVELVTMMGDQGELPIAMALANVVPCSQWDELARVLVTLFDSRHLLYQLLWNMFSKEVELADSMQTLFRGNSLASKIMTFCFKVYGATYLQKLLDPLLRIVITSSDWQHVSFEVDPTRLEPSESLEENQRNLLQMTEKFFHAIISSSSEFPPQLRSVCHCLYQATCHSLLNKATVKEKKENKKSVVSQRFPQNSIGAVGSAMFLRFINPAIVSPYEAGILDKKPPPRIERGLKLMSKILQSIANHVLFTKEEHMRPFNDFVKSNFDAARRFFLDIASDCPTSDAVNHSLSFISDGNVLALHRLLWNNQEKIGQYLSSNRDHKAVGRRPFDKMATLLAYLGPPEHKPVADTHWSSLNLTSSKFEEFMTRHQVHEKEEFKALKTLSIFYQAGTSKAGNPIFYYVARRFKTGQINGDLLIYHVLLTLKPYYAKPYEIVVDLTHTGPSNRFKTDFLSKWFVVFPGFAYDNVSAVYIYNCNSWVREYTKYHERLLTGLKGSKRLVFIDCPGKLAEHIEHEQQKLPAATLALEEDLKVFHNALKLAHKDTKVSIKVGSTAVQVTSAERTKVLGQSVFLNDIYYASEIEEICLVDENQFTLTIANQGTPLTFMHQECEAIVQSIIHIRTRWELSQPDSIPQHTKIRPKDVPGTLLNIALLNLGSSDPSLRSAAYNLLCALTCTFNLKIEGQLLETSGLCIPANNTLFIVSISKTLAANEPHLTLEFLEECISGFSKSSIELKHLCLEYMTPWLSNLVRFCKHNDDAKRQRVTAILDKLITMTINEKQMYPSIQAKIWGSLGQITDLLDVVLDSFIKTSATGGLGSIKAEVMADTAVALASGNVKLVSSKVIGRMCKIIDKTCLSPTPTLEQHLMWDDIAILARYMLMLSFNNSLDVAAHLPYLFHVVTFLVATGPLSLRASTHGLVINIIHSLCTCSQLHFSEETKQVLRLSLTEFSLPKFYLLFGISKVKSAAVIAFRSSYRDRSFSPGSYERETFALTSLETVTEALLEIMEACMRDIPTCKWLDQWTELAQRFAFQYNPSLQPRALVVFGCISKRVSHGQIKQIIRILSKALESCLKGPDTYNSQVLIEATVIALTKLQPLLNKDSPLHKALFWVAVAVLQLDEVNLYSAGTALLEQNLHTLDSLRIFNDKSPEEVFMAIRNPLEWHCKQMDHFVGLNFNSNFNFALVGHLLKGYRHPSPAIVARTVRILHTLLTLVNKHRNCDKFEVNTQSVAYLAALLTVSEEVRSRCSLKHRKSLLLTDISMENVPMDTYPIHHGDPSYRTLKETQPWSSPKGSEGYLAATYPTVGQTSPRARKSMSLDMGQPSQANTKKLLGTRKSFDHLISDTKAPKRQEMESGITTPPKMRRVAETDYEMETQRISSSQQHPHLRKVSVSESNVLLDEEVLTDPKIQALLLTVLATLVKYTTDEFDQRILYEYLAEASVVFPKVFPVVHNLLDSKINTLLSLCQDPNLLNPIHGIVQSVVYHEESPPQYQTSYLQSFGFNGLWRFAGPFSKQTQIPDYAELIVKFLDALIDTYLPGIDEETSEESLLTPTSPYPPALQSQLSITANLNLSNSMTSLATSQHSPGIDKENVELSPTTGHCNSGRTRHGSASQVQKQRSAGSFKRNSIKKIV

Substance: Gβγ, NanoBRET construct (from UniProt P62873 1-340; P59768 1-71) (complex)
- 1/τ of the onset of the BRET signal after MOR activation: 0.67 s⁻¹
